Measured values as given in the supplement of paper PMC10126150.
± gives the standard deviation of the averaged measurements.

test system: ATP; assay: switch fluorescence ratio, 500 uM ATP over buffer (Cy3 cluster intensity, sum of 5 cycles each) (fold (ratio)); higher = stronger signal-on switching upon ATP binding; sequences stand for … in TCGTCGGCAGCGTCAGATGTGTATAAGAGACAGTTTTTTTTTTTTTTTTTTTTTTTTT…TC; conditions: aptamer strand: ATP DNA aptamer (quencher-CACCTGGGGGAGTATTGCGGAGGAAGG + anchor), 100 nM annealed; ATP concentration: 500 uM
How it was run: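 Five buffer/ATP imaging cycles were run on Cy3-labelled switching-strand clusters on a modified Illumina MiSeq flow-cell, with NaOH stripping and re-annealing between cycles. In each cycle, clusters annealed to 100 nM quencher-labelled ATP aptamer were imaged in selection buffer, then after 15 min with 500 uM ATP at 22 °C. Per cluster, the fluorescence ratio is summed target-cycle over summed buffer-cycle Cy3 intensity, averaged per switch-domain sequence. Only clusters within 100-1000 RFU were kept.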
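Note: ATP exposure 15 min at 22 °C before imaging.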

| Sequence | switch fluorescence ratio |
| --- | --- |
| ATTTGGGTAG | 1.01 ± 0.062 |
| ATTTGGTGAC | 0.9987 ± 0.0042 |
| ATTTGGTGCA | 1.01 ± 0.056 |
| ATTTGGTTA | 0.993 ± 0.035 |
| ATTTGTAAGT | 0.9587 ± 0.006 |
| ATTTGTTGCA | 1.0298 ± 0.00091 |
| ATTTGTTGCG | 0.999 ± 0.017 |
| ATTTTAAGCG | 1.01 ± 0.014 |
| ATTTTAAGTC | 0.987 ± 0.041 |
| ATTTTACGAT | 0.999 ± 0.049 |
| ATTTTAGTGT | 0.968 ± 0.029 |
| ATTTTATAAA | 0.986 ± 0.026 |
| ATTTTATTTG | 1.06 ± 0.056 |
| ATTTTCATTG | 0.9749 ± 0.0087 |
| ATTTTCCAGG | 1.49 ± 0.26 |
| ATTTTCTTTG | 0.9958 ± 0.0089 |
| ATTTTGCAAT | 1.27 ± 0.037 |
| ATTTTGCGAT | 1.01 ± 0.015 |
| ATTTTGCGTG | 0.98 ± 0.029 |
| ATTTTGCTAA | 0.996 ± 0.016 |
| ATTTTGCTCT | 1.02 ± 0.026 |
| ATTTTGGCGA | 1.02 ± 0.029 |
| ATTTTGGTTG | 1.01 ± 0.035 |
| ATTTTGTCGC | 0.992 ± 0.016 |
| ATTTTGTGTT | 0.988 ± 0.022 |

| Sequence | switch fluorescence ratio |
| --- | --- |
| ATTTTTAAGA | 1 ± 0.012 |
| ATTTTTATCC | 1.022 ± 0.0068 |
| ATTTTTGAGC | 1.04 ± 0.048 |
| ATTTTTGAGT | 1.02 ± 0.025 |
| ATTTTTGTGG | 0.974 ± 0.011 |
| ATTTTTGTTA | 0.986 ± 0.054 |
| ATTTTTTCAG | 1.03 ± 0.014 |
| ATTTTTTCCT | 1.03 ± 0.022 |
| ATTTTTTCGC | 0.995 ± 0.015 |
| ATTTTTTGAA | 0.997 ± 0.019 |
| ATTTTTTGG | 0.997 ± 0.017 |
| ATTTTTTTAT | 0.995 ± 0.017 |
| CAAAAAACGA | 0.999 ± 0.066 |
| CAAAAATTAT | 1.03 ± 0.044 |
| CAAAACTTGC | 1.18 ± 0.032 |
| CAAAAGGCAG | 0.984 ± 0.048 |
| CAAAAGGGAT | 1.03 ± 0.017 |
| CAAAAGGTTA | 0.996 ± 0.011 |
| CAAAAGTCGG | 1.02 ± 0.012 |
| CAAAAGTCTT | 1.02 ± 0.037 |
| CAAAATTAAA | 0.958 ± 0.044 |
| CAAAATTGGG | 0.956 ± 0.013 |
| CAAACAGGCA | 1.03 ± 0.041 |
| CAAACAGTCG | 1.01 ± 0.042 |
| CAAACTGTCA | 1.07 ± 0.06 |

| Sequence | switch fluorescence ratio |
| --- | --- |
| CAAAGATAAT | 1.01 ± 0.039 |
| CAAAGATGG | 0.947 ± 0.013 |
| CAAAGCTGGG | 1.05 ± 0.05 |
| CAAAGGGCAT | 1.02 ± 0.032 |
| CAAAGGGGGT | 1 ± 0.016 |
| CAAAGGTGCA | 1.09 ± 0.032 |
| CAAAGGTTGG | 1 ± 0.038 |
| CAAATAAGTC | 0.998 ± 0.013 |
| CAAATACGGT | 1.25 ± 0.25 |
| CAAATACTTG | 1.04 ± 0.019 |
| CAAATAGGCC | 1.002 ± 0.0014 |
| CAAATAGGGG | 0.971 ± 0.024 |
| CAAATATGAG | 0.972 ± 0.033 |
| CAAATGATGT | 1.01 ± 0.027 |
| CAAATGCCCG | 0.934 ± 0.055 |
| CAAATGGGCT | 0.975 ± 0.044 |
| CAAATGGGG | 0.9589 ± 0.006 |
| CAAATGGGGG | 0.985 ± 0.015 |
| CAAATGGTTC | 0.9582 ± 0.0043 |
| CAAATTAGGC | 1.06 ± 0.1 |
| CAAATTGGAC | 1.03 ± 0.0071 |
| CAAATTTTTT | 1.01 ± 0.02 |
| CAACAAGGGA | 1.04 ± 0.018 |
| CAACATGGGG | 0.9925 ± 0.0065 |
| CAACCCATCT | 0.992 ± 0.042 |

| Sequence | switch fluorescence ratio |
| --- | --- |
| CAACCGTGAG | 1.02 ± 0.017 |
| CAACGGGGGA | 1 ± 0.032 |
| CAACGGGTGC | 1.75 ± 0.21 |
| CAACTATTTT | 1.002 ± 0.0083 |
| CAACTTAGTC | 0.988 ± 0.068 |
| CAAGAAGTGG | 0.993 ± 0.041 |
| CAAGAGGGAG | 0.994 ± 0.018 |
| CAAGCCATCA | 0.9994 ± 0.0092 |
| CAAGCCGTGT | 1.02 ± 0.036 |
| CAAGCGTTGT | 1.03 ± 0.036 |
| CAAGCTTTTT | 0.979 ± 0.032 |
| CAAGGAACGT | 1.01 ± 0.029 |
| CAAGGATGTG | 0.965 ± 0.041 |
| CAAGGCCTGT | 0.971 ± 0.017 |
| CAAGGCTGCA | 1.04 ± 0.06 |
| CAAGGGAATG | 1 ± 0.022 |
| CAAGGGCGGG | 0.997 ± 0.063 |
| CAAGGGGGGT | 1 ± 0.019 |
| CAAGGGTAGG | 1.04 ± 0.021 |
| CAAGGTCAGA | 1.018 ± 0.01 |
| CAAGGTCCAG | 1 ± 0.041 |
| CAAGGTTGTT | 1 ± 0.011 |
| CAAGTAAAAG | 1.01 ± 0.011 |
| CAAGTAGACC | 0.997 ± 0.13 |
| CAAGTAGAGT | 0.9953 ± 0.0059 |

| Sequence | switch fluorescence ratio |
| --- | --- |
| CAAGTAGGTG | 1.03 ± 0.015 |
| CAAGTCGTTT | 1.017 ± 0.0023 |
| CAAGTCTATG | 0.973 ± 0.036 |
| CAAGTGAATG | 1.01 ± 0.017 |
| CAAGTGCTTG | 1.03 ± 0.014 |
| CAAGTGGCGG | 0.969 ± 0.016 |
| CAAGTGGGGG | 1.02 ± 0.038 |
| CAAGTTAATG | 0.97 ± 0.041 |
| CAAGTTATGT | 1 ± 0.044 |
| CAAGTTGTTT | 0.996 ± 0.021 |
| CAAGTTTACC | 1.037 ± 0.0023 |
| CAATAAATAG | 1.005 ± 0.006 |
| CAATAAATAT | 0.97 ± 0.032 |
| CAATAAGAGC | 1.09 ± 0.029 |
| CAATAATGTA | 1.03 ± 0.051 |
| CAATACTAAC | 1.32 ± 0.037 |
| CAATAGAGGG | 0.991 ± 0.033 |
| CAATAGCGGT | 1.05 ± 0.02 |
| CAATATCTCC | 2.29 ± 0.16 |
| CAATATTACT | 1.01 ± 0.042 |
| CAATATTCTT | 1.02 ± 0.027 |
| CAATATTTTT | 1 ± 0.015 |
| CAATCTTGGA | 1 ± 0.012 |
| CAATGAGTAT | 1.011 ± 0.003 |
| CAATGCGACA | 1.39 ± 0.078 |

| Sequence | switch fluorescence ratio |
| --- | --- |
| CAATGGGACC | 1.011 ± 0.0013 |
| CAATGGGGGA | 1.007 ± 0.0018 |
| CAATGGGTAC | 0.969 ± 0.024 |
| CAATGTCCCG | 0.9985 ± 0.0041 |
| CAATGTGACG | 1.03 ± 0.052 |
| CAATGTGGAG | 0.992 ± 0.055 |
| CAATGTTTGC | 1.002 ± 0.0083 |
| CAATTATTTT | 1.02 ± 0.027 |
| CAATTCGATA | 1.02 ± 0.025 |
| CAATTCGTTA | 1.01 ± 0.0035 |
| CAATTGCATC | 1.02 ± 0.014 |
| CAATTGGATG | 1 ± 0.073 |
| CAATTGGCGT | 0.967 ± 0.021 |
| CAATTGGGTG | 1.06 ± 0.022 |
| CAATTGGTTT | 0.997 ± 0.016 |
| CAATTTCAGC | 0.999 ± 0.025 |
| CAATTTCGGT | 0.996 ± 0.039 |
| CAATTTGGGG | 0.994 ± 0.02 |
| CAATTTTCGG | 0.989 ± 0.022 |
| CACAAGGGCG | 0.94 ± 0.02 |
| CACAAGTTTT | 1.02 ± 0.03 |
| CACACAAAAT | 0.977 ± 0.014 |
| CACACGTTTT | 1.02 ± 0.013 |
| CACAGCTCAC | 1.79 ± 0.065 |
| CACATGTTAT | 1.0197 ± 0.00089 |

| Sequence | switch fluorescence ratio |
| --- | --- |
| CACATTAACT | 1.094 ± 0.0047 |
| CACATTACAT | 1.28 ± 0.1 |
| CACCATGTTC | 0.989 ± 0.032 |
| CACCCCGCAC | 3.46 ± 0.48 |
| CACCTGATGG | 0.997 ± 0.025 |
| CACCTGTTGC | 1.02 ± 0.011 |
| CACCTTAATT | 1.037 ± 0.0075 |
| CACCTTACGT | 1.45 ± 0.079 |
| CACGAAGGTG | 1.16 ± 0.032 |
| CACGACTCGT | 1 ± 0.011 |
| CACGAGAACT | 1.1 ± 0.024 |
| CACGAGGGGA | 1.02 ± 0.057 |
| CACGAGTTAG | 1.0257 ± 0.00055 |
| CACGATTTTT | 0.988 ± 0.022 |
| CACGCGGGGA | 1.01 ± 0.041 |
| CACGCTTTTT | 1.15 ± 0.23 |
| CACGGACAGC | 1.41 ± 0.025 |
| CACGGACTGC | 1.42 ± 0.07 |
| CACGGAGGGG | 0.9875 ± 0.0095 |
| CACGGCTCGC | 1.04 ± 0.015 |
| CACGGCTTGG | 0.9744 ± 0.0044 |
| CACGGGATGG | 1.05 ± 0.026 |
| CACGGGGAAG | 1.02 ± 0.047 |
| CACGGGGGA | 0.974 ± 0.025 |
| CACGGGGGGG | 1.02 ± 0.025 |

| Sequence | switch fluorescence ratio |
| --- | --- |
| CACGGGTATT | 1.013 ± 0.0028 |
| CACGGGTGGC | 1.152 ± 0.011 |
| CACGGGTTCC | 1.03 ± 0.041 |
| CACGGTTGTT | 1.015 ± 0.0074 |
| CACGGTTTGT | 0.985 ± 0.018 |
| CACGTACGGG | 1.59 ± 0.089 |
| CACGTGGGGG | 1.007 ± 0.006 |
| CACGTGTGGT | 0.988 ± 0.036 |
| CACTACGGGA | 1.05 ± 0.012 |
| CACTAGACGG | 1.45 ± 0.064 |
| CACTAGAGGA | 1.022 ± 0.0057 |
| CACTAGGCGG | 1.0232 ± 0.00067 |
| CACTGATCCT | 1.032 ± 0.0032 |
| CACTGCCTGC | 1.08 ± 0.036 |
| CACTGGCCGA | 1.035 ± 0.01 |
| CACTGGGGGT | 1.03 ± 0.019 |
| CACTGGGGTT | 0.988 ± 0.017 |
| CACTGTATCG | 1.13 ± 0.063 |
| CACTGTGGGT | 0.9744 ± 0.0046 |
| CACTTTACTT | 1.28 ± 0.072 |
| CACTTTCATG | 1.013 ± 0.0021 |
| CACTTTGGGG | 0.971 ± 0.0062 |
| CAGAACAGCT | 1.029 ± 0.0039 |
| CAGAAGGGGA | 1.09 ± 0.079 |
| CAGAAGTCTC | 1 ± 0.014 |
